This is an account of results in publication PMC11059001.

Positions count from the first letter of the chain named. Names may count otherwise.

Usually Kd stands for a measure of binding affinity in units of concentration. Low values mean a tighter complex, high ones a looser complex.

This assay has as its target complement C1q, P02745;P02746;P02747. Put plainly: MST. The conditions noted are these: chain shown with the change.

B1: truncated Trichinella spiralis calreticulin TsCRT^Δ (22-209, GSG linker, 305-364) D139A; H149A (protein)
chain: EPTIYLKETFDDGDAWKERWVQSKHKDDYGEWQLSHGKLFADENDMGLKTMQDARFYSLSRKFDKVVDNKDKPLVIVYTVKHEQDIDCGGGYIKLMLENTDLEDFNSDTPYRIMFGPAICGPEKRAVASILWHDGKNYEKRKNAIAMADIFTHAYKLIIFPNNSYEIWVNNDKEAYGRLEDDWTMTEPGSGPVPELYRYKGLGAIGFELWQVKSGTIFDNILITDDPEYAKEFIDKQLEALRPIEKVESDK
On to B1, for which the Kd was found to be 19 µM.

B2: truncated Trichinella spiralis calreticulin TsCRT^Δ (22-209, GSG linker, 305-364) C141A; K145A (protein)
chain: B1 chain with A118D, C120A, K124A, A128H
B2 had an equilibrium dissociation constant (Kd) of 34.8 µM.

B3: truncated Trichinella spiralis calreticulin TsCRT^Δ (22-209, GSG linker, 305-364) M135A; I151A (protein)
chain: B1 chain with M114A, A118D, A128H, I130A
Take B3: the Kd amounted to 5.99 µM.

B4: truncated Trichinella spiralis calreticulin TsCRT^Δ (22-209, GSG linker, 305-364) W323A; V325A (protein)
chain: MGSSHHHHHHSSGENLYFQGGSEPTIYLKETFDDGDAWKERWVQSKHKDDYGEWQLSHGKLFADENDMGLKTMQDARFYSLSRKFDKVVDNKDKPLVIVYTVKHEQDIDCGGGYIKLMLENTDLEDFNSDTPYRIMFGPDICGPEKRAVHSILWHDGKNYEKRKNAIAMADIFTHAYKLIIFPNNSYEIWVNNDKEAYGRLEDDWTMTEPGSGPVPELYRYKGLGAIGFELAQAKSGTIFDNILITDDPEYAKEFIDKQLEALRPIEKVESDK
The molecule B4 came in with a Kd of 22.9 µM.
